B1: Apoptotic protease-activating factor 1 (Homo sapiens), O14727 (parent)
chain: MDAKARNCLLQHREALEKDIKTSYIMDHMISDGFLTISEEEKVRNEPTQQQRAAMLIKMILKKDNDSYVSFYNALLHEGYKDLAALLHDGIPVVSSSSGKDSVSGITSYVRTVLCEGGVPQRPVVFVTRKKLVNAIQQKLSKLKGEPGWVTIHGMAGCGKSVLAAEAVRDHSLLEGCFPGGVHWVSVGKQDKSGLLMKLQNLCTRLDQDESFSQRLPLNIEEAKDRLRILMLRKHPRSLLILDDVWDSWVLKAFDSQCQILLTTRDKSVTDSVMGPKYVVPVESSLGKEKGLEILSLFVNMKKADLPEQAHSIIKECKGSPLVVSLIGALLRDFPNRWEYYLKQLQNKQFKRIRKSSSYDYEALDEAMSISVEMLREDIKDYYTDLSILQKDVKVPTKVLCILWDMETEEVEDILQEFVNKSLLFCDRNGKSFRYYLHDLQVDFLTEKNCSQLQDLHKKIITQFQRYHQPHTLSPDQEDCMYWYNFLAYHMASAKMHKELCALMFSLDWIKAKTELVGPAHLIHEFVEYRHILDEKDCAVSENFQEFLSLNGHLLGRQPFPNIVQLGLCEPETSEVYQQAKLQAKQEVDNGMLYLEWINKKNITNLSRLVVRPHTDAVYHACFSEDGQRIASCGADKTLQVFKAETGEKLLEIKAHEDEVLCCAFSTDDRFIATCSVDKKVKIWNSMTGELVHTYDEHSEQVNCCHFTNSSHHLLLATGSSDCFLKLWDLNQKECRNTMFGHTNSVNHCRFSPDDKLLASCSADGTLKLWDATSANERKSINVKQFFLNLEDPQEDMEVIVKCCSWSADGARIMVAAKNKIFLFDIHTSGLLGEIHTGHHSTIQYCDFSPQNHLAVVALSQYCVELWNTDSRSKVADCRGHLSWVHGVMFSPDGSSFLTSSDDQTIRLWETKKVCKNSAVMLKQEVDVVFQENEVMVLAVDHIRRLQLINGRTGQIDYLTEAQVSCCCLSPHLQYIAFGDENGAIEILELVNNRIFQSRFQHKKTVWHIQFTADEKTLISSSDDAEIQVWNWQLDKCIFLRGHQETVKDFRLLKNSRLLSWSFDGTVKVWNIITGNKEKDFVCHQGTVLSCDISHDATKFSSTSADKTAKIWSFDLLLPLHELRGHNGCVRCSAFSVDSTLLATGDDNGEIRIWNVSNGELLHLCAPLSEEGAATHGGWVTDLCFSPDGKMLISAGGYIKWWNVVTGESSQTFYTNGTNLKKIHVSPDFKTYVTVDNLGILYILQTLE
B2: Caspase-9 (Homo sapiens), P55211 (parent)
chain: MDEADRRLLRRCRLRLVEELQVDQLWDALLSRELFRPHMIEDIQRAGSGSRRDQARQLIIDLETRGSQALPLFISCLEDTGQDMLASFLRTNRQAAKLSKPTLENLTPVVLRPEIRKPEVLRPETPRPVDIGSGGFGDVGALESLRGNADLAYILSMEPCGHCLIINNVNFCRESGLRTRTGSNIDCEKLRRRFSSLHFMVEVKGDLTAKKMVLALLELAQQDHGALDCCVVVILSHGCQASHLQFPGAVYGTDGCPVSVEKIVNIFNGTSCPSLGGKPKLFFIQACGGEQKDHGFEVASTSPEDESPGSNPEPDATPFQEGLRTFDQLDAISSLPTPSDIFVSYSTFPGFVSWRDPKSGSWYVETLDDIFEQWAHSEDLQSLLLRVANAVSVKGIYKQMPGCFNFLRKKLFFKTS

Variants of: B1
Conditions: with casp9_human CASP9, P55211

| effect of a mutation on the interaction | Variant |
| --- | --- |
| disrupting interaction | E40A |
| decreasing interaction | S31A |
| disrupting interaction | D27A |

Variants of: B2
Conditions: with apaf_human APAF1, O14727

| effect of a mutation on the interaction | Variant |
| --- | --- |
| decreasing interaction | R11A |
| disrupting interaction | R13A |
| decreasing interaction | R52A |
| disrupting interaction | R56A |
